Assay results reported in US20240132578A1.

Assays:
[1] = target: JR-FL GP120 ΔV3 (HIV-1 JR-FL); test: ELISA, antigen-coated wells, mAb titrated; EC50 by nonlinear regression
[2] = target: HIV-1 APV13 envelope glycoprotein (Env) on pseudovirus (HIV-1); test: cell-based or functional assay
[3] = target: HIV-1 JRFL envelope glycoprotein (Env) on pseudovirus (HIV-1); test: cell-based or functional assay
[4] = target: HIV-1 MGRM-A-010 envelope glycoprotein (Env) on pseudovirus (HIV-1); test: cell-based or functional assay
[5] = target: HIV-1 MGRM-C-026 envelope glycoprotein (Env) on pseudovirus (HIV-1); test: cell-based or functional assay
[6] = target: HIV-1 MGRM-C-028 envelope glycoprotein (Env) on pseudovirus (HIV-1); test: cell-based or functional assay
[7] = target: HIV-1 MGRM-D-018 envelope glycoprotein (Env) on pseudovirus (HIV-1); test: cell-based or functional assay
[8] = target: HIV-1 93IN905 envelope protein (Env) on pseudotyped virus (HIV-1 strain 93IN905); test: cell-based or functional assay
[9] = target: HIV-1 IAVI_C22 envelope protein (Env) on pseudotyped virus (HIV-1 strain IAVI C22); test: cell-based or functional assay
[10] = target: HIV-1 JR-CSF envelope protein (Env) on pseudotyped virus (HIV-1 isolate JR-CSF) (UniProt P20871); test: cell-based or functional assay
[11] = target: HIV-1 Env of isolate 92BR020 (Clade B) (HIV-1); test: cell-based or functional assay
[12] = target: HIV-1 Env of isolate 92UG005 (Clade D) (HIV-1); test: cell-based or functional assay
[13] = target: HIV-1 Env of isolate 93UG077 (Clade A) (HIV-1); test: cell-based or functional assay
[14] = target: HIV-1 Env of isolate NL43 (positive control) (HIV-1); test: cell-based or functional assay
[15] = target: HIV-1 JR-CSF Env F317A (HIV-1 (isolate JR-CSF, clade B)) (UniProt P20871); test: cell-based or functional assay
[16] = target: HIV-1 JR-CSF Env I309A (HIV-1 (isolate JR-CSF, clade B)) (UniProt P20871); test: cell-based or functional assay
[17] = target: HIV-1 JR-CSF Env Q337A (HIV-1 isolate JR-CSF) (UniProt P20871); test: cell-based or functional assay
[18] = target: HIV-1 JR-CSF Env R327A (HIV-1 isolate JR-CSF) (UniProt P20871); test: cell-based or functional assay
[19] = target: HIV-1 JR-CSF Env T320A (HIV-1 (isolate JR-CSF, clade B)) (UniProt P20871); test: cell-based or functional assay
[20] = target: HIV-1 JR-CSF Env T341A (HIV-1 isolate JR-CSF) (UniProt P20871); test: cell-based or functional assay
[21] = target: HIV-1 JR-CSF Env N332A (HIV-1 isolate JR-CSF) (UniProt P20871); test: cell-based or functional assay
[22] = target: HIV-1 MGRM-AG-005 Env (HIV-1); test: cell-based or functional assay
[23] = target: HIV-1 envelope glycoprotein (Env) of isolate 92BR020, on pseudovirus (HIV-1); test: cell-based or functional assay
[24] = target: HIV-1 envelope glycoprotein (Env) of isolate 92WR026, subtype A (HIV-1); test: cell-based or functional assay
[25] = target: HIV-1 envelope glycoprotein (Env) of isolate MG RM-A-002, subtype A (HIV-1); test: cell-based or functional assay
[26] = target: HIV-1 envelope glycoprotein (Env) of isolate MGRM-Chronic-B-010, on pseudovirus (HIV-1); test: cell-based or functional assay
[27] = target: HIV-1 JR-CSF Env N262A (HIV-1 (isolate JR-CSF)) (UniProt P20871); test: cell-based or functional assay
[28] = target: HIV-1 Env of isolate IAVI-C18 (Clade C) (HIV-1); test: cell-based or functional assay

Substance 4838_L06 (PGT-121) (antibody) has an EC50 [1] of over 10 µg/mL.
Work on PGT-141 (4964_G22; 4993_K13) (antibody) yielded an IC50, pseudovirus neutralization [2] of over 10 µg/mL, an IC50, pseudovirus neutralization [3] of over 10 µg/mL and an IC50, pseudovirus neutralization [4] of 0.0563 µg/mL. It also gave an IC50, pseudovirus neutralization [5] of over 10 µg/mL, an IC50, pseudovirus neutralization [6] of 2.35 µg/mL and an IC50, pseudovirus neutralization [7] of over 10 µg/mL.
For 1495_C14 (PGC14) (antibody), the IC50, Neutralizing Antibody Assay, Virus/Ab Incubation 1 hour [8] was over 50 µg/mL, the IC50, Neutralizing Antibody Assay, Virus/Ab Incubation 18 hour [8] was 0.146 µg/mL and the IC50, Neutralizing Antibody Assay, Virus/Ab Incubation 1 hour [9] was over 50 µg/mL. The IC50, Neutralizing Antibody Assay, Virus/Ab Incubation 18 hour [9] was 13.4 µg/mL, the IC50, Neutralizing Antibody Assay, Virus/Ab Incubation 1 hour [10] was over 50 µg/mL and the IC50, Neutralizing Antibody Assay, Virus/Ab Incubation 18 hour [10] was over 50 µg/mL.
Substance 2F5 (antibody) has an IC90 (neutralization of pseudovirus) [11] of over 50 µg/mL, an IC90 (neutralization of pseudovirus) [12] of over 50 µg/mL and an IC90 (neutralization of pseudovirus) [13] of 33.4 µg/mL. It also gave an IC90 (neutralization of pseudovirus) [14] of 19.3 µg/mL.
In the case of 5136_H01 (PGT-131) (antibody), the Fold IC50 increase relative to wild-type [15] is reported as 96 fold, the Fold IC50 increase relative to wild-type [16] is reported as 8.8 fold and the Fold IC50 increase relative to wild-type [17] is reported as 1.3 fold. For the same substance, the Fold IC50 increase relative to wild-type [18] was 19 fold, the Fold IC50 increase relative to wild-type [19] was 4.5 fold and the Fold IC50 increase relative to wild-type [20] was 1.3 fold.
In the case of 5141_B17 (PGT-126) (antibody), the Fold IC50 increase relative to wild-type [21] is reported as 181 fold, the Fold IC50 increase relative to wild-type [17] is reported as 0.4 fold and the Fold IC50 increase relative to wild-type [18] is reported as 2.2 fold. For the same substance, the IC50, pseudovirus neutralization [22] was 1.35 µg/mL, the IC50, pseudovirus neutralization [23] was 0.015 µg/mL and the IC50, pseudovirus neutralization [24] was 0.008 µg/mL. For the same substance, the IC50, pseudovirus neutralization [25] was 0.015 µg/mL and the IC50, pseudovirus neutralization [26] was 0.005 µg/mL.
Substance 4877_D15 (PGT-122) (antibody) has an IC50, pseudovirus neutralization [22] of over 10 µg/mL, an IC50, pseudovirus neutralization [23] of 0.021 µg/mL and an IC50, pseudovirus neutralization [24] of 0.036 µg/mL. For the same substance, the IC50, pseudovirus neutralization [25] was 0.017 µg/mL and the IC50, pseudovirus neutralization [26] was 0.018 µg/mL.
PGT-144 (4970_K22) (antibody) gave an IC50, pseudovirus neutralization [2] of over 10 µg/mL, an IC50, pseudovirus neutralization [3] of over 10 µg/mL and an IC50, pseudovirus neutralization [4] of 4.02 µg/mL. The IC50, pseudovirus neutralization [5] was over 10 µg/mL, the IC50, pseudovirus neutralization [6] was over 10 µg/mL and the IC50, pseudovirus neutralization [7] was over 10 µg/mL.
In the case of 5345_I01 (PGT-137) (antibody), the EC50 [1] is reported as 0.1 µg/mL.
5114_A19 (PGT-128) (antibody) gave a Fold IC50 increase relative to wild-type [27] of 1.6 fold and an EC50 [1] of 7.8 µg/mL.
Work on 5123_A06 (PGT-125) (antibody) yielded a Fold IC50 increase relative to wild-type [21] of 2 fold, a Fold IC50 increase relative to wild-type [17] of 0.8 fold and a Fold IC50 increase relative to wild-type [19] of 0.8 fold. It also gave an IC50, pseudovirus neutralization [22] of over 10 µg/mL, an IC50, pseudovirus neutralization [23] of 0.016 µg/mL and an IC50, pseudovirus neutralization [24] of 0.007 µg/mL. The IC50, pseudovirus neutralization [25] was 0.013 µg/mL and the IC50, pseudovirus neutralization [26] was 0.006 µg/mL.
5329_C19 (PGT-136) (antibody) showed an EC50 [1] of 0.1 µg/mL.
4E10 (antibody) gave an IC90 (neutralization of pseudovirus) [11] of over 50 µg/mL, an IC90 (neutralization of pseudovirus) [12] of over 50 µg/mL and an IC90 (neutralization of pseudovirus) [13] of over 50 µg/mL. For the same substance, the IC90 (neutralization of pseudovirus) [28] was over 50 µg/mL and the IC90 (neutralization of pseudovirus) [14] was 29.6 µg/mL.
PGT-143 (4980_N08) (antibody) gave an IC50, pseudovirus neutralization [2] of over 10 µg/mL, an IC50, pseudovirus neutralization [3] of over 10 µg/mL and an IC50, pseudovirus neutralization [4] of 0.0657 µg/mL. It also gave an IC50, pseudovirus neutralization [5] of over 10 µg/mL, an IC50, pseudovirus neutralization [6] of 1.82 µg/mL and an IC50, pseudovirus neutralization [7] of over 10 µg/mL.
Substance 2G12 (antibody) has an IC90 (neutralization of pseudovirus) [11] of 24.1 µg/mL, an IC90 (neutralization of pseudovirus) [12] of over 50 µg/mL and an IC90 (neutralization of pseudovirus) [13] of over 50 µg/mL. It also gave an IC90 (neutralization of pseudovirus) [28] of over 50 µg/mL and an IC90 (neutralization of pseudovirus) [14] of 15.8 µg/mL.
With 5145_B14 (PGT-127) (antibody) the Fold IC50 increase relative to wild-type [16] was 6 fold, the Fold IC50 increase relative to wild-type [21] was over 100 fold and the Fold IC50 increase relative to wild-type [17] was 0.5 fold. The Fold IC50 increase relative to wild-type [18] was 1.8 fold, the Fold IC50 increase relative to wild-type [19] was 1.8 fold and the IC50, pseudovirus neutralization [23] was 0.059 µg/mL. It also gave an IC50, pseudovirus neutralization [24] of 0.024 µg/mL, an IC50, pseudovirus neutralization [25] of 9.42 µg/mL and an IC50, pseudovirus neutralization [26] of 0.019 µg/mL.
Work on PGT-142 (4995_E20) (antibody) yielded an IC50, pseudovirus neutralization [2] of over 10 µg/mL, an IC50, pseudovirus neutralization [3] of over 10 µg/mL and an IC50, pseudovirus neutralization [4] of 0.0578 µg/mL. It also gave an IC50, pseudovirus neutralization [5] of over 10 µg/mL, an IC50, pseudovirus neutralization [6] of 1.23 µg/mL and an IC50, pseudovirus neutralization [7] of over 10 µg/mL.
